How the values were obtained:
HLA-A*02:01 [1] = assay: IEDB peptide-MHC binding, purified MHC/direct/fluorescence; filed as Kd, often an IC50 or EC50 that approximates it; ≥ and ≤ were set here for values at or beyond the usual limits of such assays; conditions: source organism: SARS-CoV1
HLA-A*31:01 [2] = assay: as above; conditions: source organism: SARS-CoV1
HLA-A*69:01 = assay: as above; conditions: source organism: SARS-CoV1
HLA-B*15:01 = assay: as above; conditions: source organism: SARS-CoV1
HLA-B*27:05 = assay: as above; conditions: source organism: SARS-CoV1
HLA-A*33:01 = assay: IEDB peptide-MHC binding, purified MHC/competitive/radioactivity; filed as Kd, often an IC50 or EC50 that approximates it; ≥ and ≤ were set here for values at or beyond the usual limits of such assays
HLA-A*68:01 = assay: as above
HLA-A*30:01 = assay: as above
HLA-B*40:01 = assay: as above
HLA-A*24:02 [3] = assay: as above
HLA-A*01:01 = assay: as above; conditions: source organism: Dengue virus 4 Philippines/H241/1956
HLA-A*02:01 [4] = assay: IEDB peptide-MHC binding, purified MHC/competitive/fluorescence; ≥ and ≤ were set here for values at or beyond the usual limits of such assays
HLA-A*02:01 [5] = assay: IEDB peptide-MHC binding, purified MHC/competitive/radioactivity; filed as Kd, often an IC50 or EC50 that approximates it; ≥ and ≤ were set here for values at or beyond the usual limits of such assays
HLA-A*26:01 [6] = assay: as above
HLA-B*53:01 = assay: as above; conditions: source organism: Dengue virus 2 Jamaica/1409/1983
HLA-A*24:02 [7] = assay: IEDB peptide-MHC binding, purified MHC/competitive/fluorescence; ≥ and ≤ were set here for values at or beyond the usual limits of such assays
HLA-B*44:02 = assay: IEDB peptide-MHC binding, purified MHC/competitive/radioactivity; filed as Kd, often an IC50 or EC50 that approximates it; ≥ and ≤ were set here for values at or beyond the usual limits of such assays
HLA-A*02:03 = assay: as above; conditions: source organism: Homo sapiens
HLA-A*23:01 = assay: as above
HLA-A*26:01 [8] = assay: IEDB peptide-MHC binding, purified MHC/direct/fluorescence; filed as Kd, often an IC50 or EC50 that approximates it; ≥ and ≤ were set here for values at or beyond the usual limits of such assays; conditions: source organism: Bacillus cereus AH1134
HLA-B*44:03 = assay: IEDB peptide-MHC binding, purified MHC/competitive/radioactivity; filed as Kd, often an IC50 or EC50 that approximates it; ≥ and ≤ were set here for values at or beyond the usual limits of such assays; conditions: source organism: Dengue virus 3 Martinique/1243/1999
HLA-A*30:02 = assay: as above; conditions: source organism: Dengue virus 4 Philippines/H241/1956
HLA-A*02:06 = assay: as above; conditions: source organism: Dengue virus 2 Jamaica/1409/1983
HLA-A*03:01 = assay: as above; conditions: source organism: Vaccinia virus WR
HLA-A*11:01 = assay: as above; conditions: source organism: Vaccinia virus WR
HLA-A*31:01 [9] = assay: as above; conditions: source organism: Vaccinia virus WR
[10] = source organism: SARS coronavirus Tor2
[11] = source organism: Vaccinia virus Copenhagen
[12] = source organism: Dengue virus 1 Brazil/97-11/1997
[13] = source organism: Dengue virus 2 Jamaica/1409/1983
[14] = source organism: Zaire ebolavirus
[15] = source organism: Sudan ebolavirus
[16] = source organism: Lassa virus Josiah
[17] = source organism: Dengue virus 4 Philippines/H241/1956
[18] = source organism: Dengue virus 3 Martinique/1243/1999
[19] = source organism: Dengue virus 4 Thailand/0348/1991
[20] = source organism: Vaccinia virus WR

In the case of KLFAAETLK, the Kd (HLA-A*02:01 [1]) is reported as ≥ 29.2 µM, the Kd (HLA-A*31:01 [2]) is reported as 0.173 µM and the Kd (HLA-A*69:01) is reported as 15.9 µM. The Kd (HLA-B*15:01) was ≥ 21.3 µM, the Kd (HLA-B*27:05) was 2.18 µM and the Kd (HLA-A*33:01; [10]) was 13.6 µM. It also gave a Kd (HLA-A*68:01; [10]) of 0.399 µM.
Work on CSRLQTCIK yielded a Kd (HLA-A*30:01; [11]) of 44 nM.
For REIVVPCRNQ, the Kd (HLA-B*40:01; [12]) was 0.228 µM.
GYHTQTAGPW showed a Kd (HLA-A*24:02 [3]; [13]) of 3.25 µM.
For NTSANLSLA, the Kd (HLA-A*01:01) was 1.35 µM.
For LSFTVVSNG, the IC50 (HLA-A*02:01 [4]; [14]) was ≥ 325 µM.
With ILDKVLVHP the Kd (HLA-A*02:01 [5]; source organism: Homo sapiens) was 4.08 µM.
For AFPQSNAVI, the Kd (HLA-A*24:02 [3]; [12]) was 2.9 µM.
STSNGLITS was tested, and the IC50 (HLA-A*02:01 [4]; [15]) was ≥ 177 µM.
For VLQTFMRMA, the Kd (HLA-A*02:01 [5]; [16]) was ≥ 5 µM.
Sequence YLFNWAVRT has an IC50 (HLA-A*02:01 [4]; source organism: Hepatitis C virus genotype 1) of 5 µM.
EPIPMSTYGW was tested, and the Kd (HLA-A*26:01 [6]; [13]) was ≥ 40.5 µM and the Kd (HLA-B*53:01) was 0.334 µM.
For VLLGVKLSGV, the Kd (HLA-A*02:01 [5]; source organism: Homo sapiens) was 0.0047 µM.
Sequence MAICSAVPTE has a Kd (HLA-A*30:01; [17]) of 10600 nM.
Sequence HTIENTSAN has a Kd (HLA-A*26:01 [6]; [17]) of 4.84 µM.
In the case of KRDGVKRLE, the IC50 (HLA-A*24:02 [7]; [14]) is reported as ≥ 173 µM.
With LWPKTHTLW the Kd (HLA-A*24:02 [3]; [17]) was 0.0449 µM.
REEEEAGVL showed a Kd (HLA-B*40:01; [13]) of 0.00323 µM.
For GMSGGNQGA, the Kd (HLA-A*02:01 [5]; [16]) was 12.5 µM.
For NEMILLTMK, the Kd (HLA-B*44:02; [18]) was 0.824 µM.
For SSQMTSTFI, the IC50 (HLA-A*02:01 [4]; [11]) was ≥ 72.6 µM and the IC50 (HLA-A*24:02 [7]; [11]) was ≥ 70.9 µM.
For ALPHAILRL, the Kd (HLA-A*02:01 [5]; source organism: Homo sapiens) was 0.128 µM and the Kd (HLA-A*02:03) was 0.00787 µM.
Work on NLLTTPKFT yielded a Kd (HLA-A*02:01 [5]; source organism: Human alphaherpesvirus 1 strain 17) of 0.5 µM.
In the case of AEGVITQDDM, the Kd (HLA-B*40:01; [17]) is reported as 1.31 µM.
With TISGVLWQV the Kd (HLA-A*02:01 [5]; source organism: Hepatitis C virus subtype 2b) was 0.035 µM.
With PVYQVNNLE the IC50 (HLA-A*24:02 [7]; [14]) was ≥ 100 µM.
With VWIEDNPNMI the Kd (HLA-A*23:01; [19]) was 0.472 µM and the Kd (HLA-A*24:02 [3]; [19]) was 0.546 µM.
With WLVSNGSYL the Kd (HLA-A*02:01 [5]; [16]) was 1.79 µM.
Sequence LWVAEIQPQW has a Kd (HLA-A*23:01; [17]) of 1.38 µM and a Kd (HLA-A*24:02 [3]; [17]) of 0.312 µM.
QREIFSAWI was tested, and the IC50 (HLA-A*24:02 [7]; source organism: Variola virus) was ≥ 76.3 µM.
For EVADRILFM, the Kd (HLA-A*26:01 [8]) was 0.003 µM.
For EVKTCIWPK, the Kd (HLA-A*30:01; [12]) was 1350 nM and the Kd (HLA-A*33:01; [12]) was 0.00282 µM.
For MVPLHIPEG, the IC50 (HLA-A*02:01 [4]; [15]) was 38.2 µM.
For CLEKVQRQI, the IC50 (HLA-A*02:01 [4]; [14]) was 21.9 µM.
For LNLSGVNNL, the IC50 (HLA-A*02:01 [4]; [14]) was ≥ 77.5 µM.
GEKKKLRPRW gave a Kd (HLA-B*44:02; [18]) of 0.342 µM and a Kd (HLA-B*44:03) of 2.6 µM.
For CETCVYNMM, the Kd (HLA-B*40:01; [13]) was 0.0521 µM and the Kd (HLA-B*44:02; [13]) was 0.0922 µM.
Work on RTKITSLPL yielded a Kd (HLA-A*30:01; [20]) of 0.0866 nM.
In the case of TVIEHLERL, the Kd (HLA-A*26:01 [6]; [18]) is reported as 0.0811 µM.
In the case of QAFTFSPTYK, the Kd (HLA-A*02:01 [5]; source organism: Hepatitis B virus subtype adw2) is reported as ≥ 35 µM.
Sequence EERDIPERSW has a Kd (HLA-B*44:02; [12]) of 0.0724 µM.
Work on KIKSSNSSK yielded a Kd (HLA-A*30:01; [20]) of 14.6 nM.
PTAWQSVGH was tested, and the IC50 (HLA-A*02:01 [4]; [14]) was ≥ 264 µM and the IC50 (HLA-A*24:02 [7]; [14]) was 28.7 µM.
With FQESADSFL the IC50 (HLA-A*02:01 [4]; [14]) was 14 µM.
MTDTTPFGQ was tested, and the Kd (HLA-A*01:01) was 3.77 µM.
EEYVDYMPV gave a Kd (HLA-B*40:01; [17]) of 0.19 µM.
Sequence PSSVAARGY has a Kd (HLA-A*01:01) of 0.2 µM and a Kd (HLA-A*30:02) of 3.23 µM.
AFKVRPTFA was tested, and the Kd (HLA-A*30:01; [13]) was 52.1 nM.
With RTLRVLNLV the Kd (HLA-A*02:06) was 0.0102 µM and the Kd (HLA-A*30:01; [13]) was 222 nM.
In the case of KFRPGSLIY, the Kd (HLA-A*03:01) is reported as ≥ 21.3 µM, the Kd (HLA-A*11:01) is reported as ≥ 58.4 µM and the Kd (HLA-A*30:01; [20]) is reported as 0.303 nM. The Kd (HLA-A*31:01 [9]) was 11.3 µM, the Kd (HLA-A*33:01; [20]) was ≥ 77.7 µM and the Kd (HLA-A*68:01; [20]) was ≥ 77.7 µM.

— the Immune Epitope Database (IEDB)
